Results from the supplement of paper PMC10567573.

B1: FAM164C (parent)
chain: YPHCTGISQQDPESDSQGQGNGLF

Variants of: B1
Assay: protein stability index of a GFP-peptide fusion (GPS, HEK-293T) (PSI 1-6); higher = more stable
Details: c terminus: a fixed tail appended
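Also: lentivirally expressed fusions sorted by FACS into six bins by GFP to DsRed ratio, PSI derived from sequencing read proportions per bin multiplied by bin number.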

| Variant | protein stability index |
| --- | --- |
| YPHCTNISQQDPESDSQGQGNGLF | 3.56 |
| YPHCTAISQQDPESDSQGQGNGLF | 3.53 |
| YPHCTTISQQDPESDSQGQGNGLF | 3.51 |
| YPHCTVISQQDPESDSQGQGNGLF | 4.17 |
| YPHCTSISQQDPESDSQGQGNGLF | 3.82 |
| YPHCTHISQQDPESDSQGQGNGLF | 3.62 |
| YPHCTGISTQDPESDSQGQGNGLF | 3.63 |
| YPHCTGISWQDPESDSQGQGNGLF | 2.48 |
| YPHCTGISQQDPESDSQGFGNGLF | 2.88 |
| YPHCTGISQQDPESDSQGNGNGLF | 3.66 |
| YPHCTGISQQDPESDSQGEGNGLF | 4.21 |
| YPHCTGISQQDPESDSQGMGNGLF | 3.22 |
| YPHCTGISQQDPESDSQPQGNGLF | 3.83 |
| YPHCTGISQQDPESDSQTQGNGLF | 3.41 |
| YPHCTGISQQDPESDSQNQGNGLF | 3.58 |
| YPHCTGISQQDPESDSQHQGNGLF | 3.74 |
| YPHCTGISQQDPESDSQIQGNGLF | 3.32 |
| YPHCTGISQQDPESDSQGQGNGLK | 5.12 |
| YPHCTGISQQDPESDSQGQGNGLI | 4.82 |
| YPHCTGISQQDPESDSQGQGNGLL | 4.77 |
| YPHCTGISQQDPESDSQGQGNGLN | 5.06 |
| YPHCTGISQQDPESDSQGQGNGLA | 3.89 |
| YPHCTGISQQDPESDSQGQGNGLD | 4.44 |
| YPHCTGISQQDPESDSQGQGNGLH | 4.81 |

| Variant | protein stability index |
| --- | --- |
| YPHCTGISQQDPESDSQGQGNGLY | 3.87 |
| YPHCTGISQQDVESDSQGQGNGLF | 3.96 |
| YPHCTGISQQDCESDSQGQGNGLF | 3.77 |
| YPHCTGISQQDAESDSQGQGNGLF | 3.95 |
| YPHCTGISQQDIESDSQGQGNGLF | 3.51 |
| YPHCTGISQQDNESDSQGQGNGLF | 3.48 |
| YPHCTGISQQDRESDSQGQGNGLF | 3.18 |
| YPHCTGISQQDPEQDSQGQGNGLF | 3.93 |
| YPHCTGISQQDPEKDSQGQGNGLF | 4.23 |
| YPHCTGISQQDPEYDSQGQGNGLF | 3.27 |
| YPHCTGISQQDPERDSQGQGNGLF | 3.79 |
| YPHCTGISQQDPEADSQGQGNGLF | 3.86 |
| YPHCTGISQQDPESDLQGQGNGLF | 2.74 |
| YPHCTGISQQDPESDDQGQGNGLF | 4.24 |
| YPHCTGISQQDPESDSQGQGDGLF | 4.5 |
| YPHCTGISQQDPESDSQGQGGGLF | 3.5 |
| YPKCTGISQQDPESDSQGQGNGLF | 3.9 |
| YPNCTGISQQDPESDSQGQGNGLF | 4.09 |
| YPWCTGISQQDPESDSQGQGNGLF | 3.22 |
| YPDCTGISQQDPESDSQGQGNGLF | 4.48 |
| YPHCTGIMQQDPESDSQGQGNGLF | 3.33 |
| YPHCTGITQQDPESDSQGQGNGLF | 3.74 |
| YPHCTGIGQQDPESDSQGQGNGLF | 3.52 |
| YPHCTGIHQQDPESDSQGQGNGLF | 3.65 |

| Variant | protein stability index |
| --- | --- |
| YPHCKGISQQDPESDSQGQGNGLF | 3.55 |
| YPHCAGISQQDPESDSQGQGNGLF | 3.46 |
| YPHCLGISQQDPESDSQGQGNGLF | 2.35 |
| YPHCTGISQQDPNSDSQGQGNGLF | 3.23 |
| YPHCTGISQQDPKSDSQGQGNGLF | 3.28 |
| YPHCTGISQQDPRSDSQGQGNGLF | 2.93 |
| YPHCTGISQQDPCSDSQGQGNGLF | 3.34 |
| YPHCTGISQQDPASDSQGQGNGLF | 3.46 |
| YPHCTGISQQDPTSDSQGQGNGLF | 3.15 |
| YPHCTGISQQKPESDSQGQGNGLF | 3.85 |
| YPHCTGISQQGPESDSQGQGNGLF | 3.18 |
| YPHCTGISQQEPESDSQGQGNGLF | 4.2 |
| YLHCTGISQQDPESDSQGQGNGLF | 3.96 |
| YYHCTGISQQDPESDSQGQGNGLF | 4.22 |
| YAHCTGISQQDPESDSQGQGNGLF | 3.57 |
| YTHCTGISQQDPESDSQGQGNGLF | 3.35 |
| YPHCTGISQQDPESDSIGQGNGLF | 3.42 |
| YPHCTGISQQDPESDSWGQGNGLF | 2.97 |
| YPHCTGCSQQDPESDSQGQGNGLF | 3.56 |
| YPHCTGHSQQDPESDSQGQGNGLF | 4 |
| YPHCTGISQQDPESDSQGQYNGLF | 2.03 |
| YPHCTGISQQDPESDSQGQTNGLF | 3.33 |
| YPHCTGISQQDPESDSQGQHNGLF | 3.08 |
| YPHCTGISQQDPESDSQGQKNGLF | 3.66 |

| Variant | protein stability index |
| --- | --- |
| YPHCTGISQQDPESDSQGQWNGLF | 2.35 |
| YPHCTGISQQDPESDSQGQPNGLF | 3.59 |
| PPHCTGISQQDPESDSQGQGNGLF | 5.37 |
| TPHCTGISQQDPESDSQGQGNGLF | 5.38 |
| YPHCTGISQQDPESSSQGQGNGLF | 3.73 |
| YPHCTGISQQDPESHSQGQGNGLF | 3.66 |
| YPHCTGISQQDPESISQGQGNGLF | 2.9 |
| YPHCTGISQQDPESVSQGQGNGLF | 3.51 |
| YPHCTGISQQDPESYSQGQGNGLF | 3.23 |
| YPHCTGISQQDPESDSQGQGNGSF | 4.6 |
| YPHCTGISQQDPESDSQGQGNGRF | 4.63 |
| YPHCTGISQQDPESDSQGQGNGFF | 3.15 |
| YPHCTGISQQDPESDSQGQGNGPF | 4.48 |
| YPHSTGISQQDPESDSQGQGNGLF | 4.16 |
| YPHQTGISQQDPESDSQGQGNGLF | 4.53 |
| YPHCTGISQQDPESDSQGQGNFLF | 2.94 |
| YPHCTGISQLDPESDSQGQGNGLF | 2.96 |
| YPHCTGISQCDPESDSQGQGNGLF | 3.1 |
| YPHCTGISQTDPESDSQGQGNGLF | 3.64 |
| YPHCTGISQMDPESDSQGQGNGLF | 3.84 |
| YPHCTGISQRDPESDSQGQGNGLF | 3.54 |
| YPHCTGISQGDPESDSQGQGNGLF | 3.88 |
